Results on eleven substances are retold here after article PMC9838529.

Values joined by “and” are separate entries in the source; they are usually repeats but may differ in a detail not shown here. Identical values can stand only once.

In assay [1] the target is monoclonal mouse antibody aE11 (full IgG) (mouse). Put plainly: SPR; aE11 IgG amine-coupled to a CM5 chip (~7000 RU), monomeric C9 as analyte; Biacore T200, 25 °C; 10 mM HEPES-NaOH pH 7.2, 150 mM NaCl, 1 mM EDTA, 0.005% P20; multi-cycle kinetics; off rate from a simple exponential decay (1:1 binding model); n = 2.
Sequence of monoclonal mouse antibody aE11 (full IgG) (mouse) (heavy, as listed by the source, chain 1 of 2): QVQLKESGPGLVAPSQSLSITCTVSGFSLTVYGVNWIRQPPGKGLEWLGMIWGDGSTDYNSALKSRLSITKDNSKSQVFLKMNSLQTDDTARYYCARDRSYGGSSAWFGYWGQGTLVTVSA
Sequence of monoclonal mouse antibody aE11 (full IgG) (mouse) (light, as listed by the source, chain 2 of 2): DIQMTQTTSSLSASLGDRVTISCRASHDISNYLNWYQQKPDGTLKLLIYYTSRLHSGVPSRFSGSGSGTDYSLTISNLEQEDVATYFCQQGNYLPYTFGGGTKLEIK
The target in another assay is aE11 IgG (mouse). Put plainly: SPR; aE11 IgG amine-coupled to a CM5 chip (~7000 RU), monomeric C9 as analyte; Biacore T200, 25 °C; 10 mM HEPES-NaOH pH 7.2, 150 mM NaCl, 1 mM EDTA, 0.005% P20; multi-cycle kinetics; off rate from a simple exponential decay (1:1 model); steady state not reached. On the technique in general: SPR reads the build-up and loss of mass on a sensor chip optically.
Sequence of aE11 IgG (mouse) (heavy, as listed by the source, chain 1 of 2): as the sequence (heavy, as listed by the source, chain 1 of 2) above
Sequence of aE11 IgG (mouse) (light, as listed by the source, chain 2 of 2): as the sequence (light, as listed by the source, chain 2 of 2) above

The target of assay [2] is polyC9 (in vitro homo-oligomerised human C9, wild type) (human). The assay is described as follows: cryo-EM structure; aE11-Fab mixed with polyC9 in stoichiometric quantities; 1 mg/ml in 10 mM HEPES, 50 mM NaCl, pH 7.2; symmetry expansion and focused refinement of three C9 protomers and two Fab variable regions.

Sequence of monomeric human C9, wild type (recombinant) (P02748 22-559): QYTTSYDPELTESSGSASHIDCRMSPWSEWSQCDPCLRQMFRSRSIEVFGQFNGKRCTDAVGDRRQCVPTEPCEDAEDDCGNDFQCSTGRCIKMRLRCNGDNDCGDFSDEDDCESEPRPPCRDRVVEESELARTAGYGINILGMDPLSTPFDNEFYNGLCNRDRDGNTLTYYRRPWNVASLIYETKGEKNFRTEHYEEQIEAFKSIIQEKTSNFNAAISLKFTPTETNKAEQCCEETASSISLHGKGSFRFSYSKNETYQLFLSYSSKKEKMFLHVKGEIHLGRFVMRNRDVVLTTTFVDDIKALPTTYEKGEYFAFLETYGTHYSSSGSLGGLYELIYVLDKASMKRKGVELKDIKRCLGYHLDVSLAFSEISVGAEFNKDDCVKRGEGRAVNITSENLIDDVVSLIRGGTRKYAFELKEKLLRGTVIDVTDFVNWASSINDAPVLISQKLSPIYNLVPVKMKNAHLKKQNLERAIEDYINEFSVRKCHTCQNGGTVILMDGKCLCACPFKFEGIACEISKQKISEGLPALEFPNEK
Sequence of human complement C9, wild type, monomeric (P02748 22-559): as above

As usually defined, the koff is a measure of how fast the partners let go of each other. The low end stands for slow dissociation, the high end for fast dissociation. For “human complement C9 P72E, monomeric (from UniProt P02748 22-559) (natural protein)”, the koff in assay [1] is 0.000106 s⁻¹ and 6.14e-05 s⁻¹.

Turning to “human complement C9, wild type, monomeric (from UniProt P02748 22-559) (natural protein)”, in assay [1], the koff is 0.000169 s⁻¹ and 0.000183 s⁻¹.

In turn, “disulphide-trapped C9 variant (F262C/V405C) (from UniProt P02748 22-559) (natural protein)” registered a koff in the assay with aE11 IgG (mouse) of 0.0001 s⁻¹.

In the assay with aE11 IgG (mouse), “monomeric human C9 R65Q (from UniProt P02748 22-559) (natural protein)” yielded a koff of 0.0001 s⁻¹.

Regarding “human complement C9 R65Q, monomeric (from UniProt P02748 22-559) (natural protein)”, the koff in assay [1] was 0.000214 s⁻¹ and 8.63e-05 s⁻¹.

Consider “human complement C9 V68E, monomeric (from UniProt P02748 22-559) (natural protein)”, for which the off-rate constant (koff) in assay [1] is 3.11e-05 s⁻¹ and 3.58e-05 s⁻¹.

In the assay with aE11 IgG (mouse), “monomeric human C9 V68E (from UniProt P02748 22-559) (natural protein)” showed a fold reduction of binding against wild-type monomeric C9 of 2 fold and a koff of 0.0001 s⁻¹.

In the assay with aE11 IgG (mouse), “monomeric human C9 P72E (from UniProt P02748 22-559) (natural protein)” yielded a fold reduction of binding against wild-type monomeric C9 of 2 fold and a koff of 0.0001 s⁻¹.

By Kd is commonly meant a measure of binding affinity in units of concentration. Low values mean higher affinity, high ones lower affinity. Take “monomeric human C9, wild type (recombinant) (from UniProt P02748 22-559) (natural protein)”: in the assay with aE11 IgG (mouse), the Kd lay in the range of 500 to 2000 nM and the koff stood at 0.0001 s⁻¹.

By stoichiometry N is commonly meant the number of molecules, sites or subunits per partner or assembly. In the case of “polyC9 (in vitro homo-oligomerised human C9, wild type) (complex)”, the stoichiometry N in assay [2] amounted to 22.

Regarding “human complement C9 F262C/V405C, disulphide-trapped, monomeric (from UniProt P02748 22-559) (natural protein)”, the koff in assay [1] was 0.000267 s⁻¹ and 0.000353 s⁻¹.
